This is an account of results in publication PMC12377726 (Proceedings of the National Academy of Sciences of the …, 2025).

B1: G001_gp1_V10_VRC01c_167 (antibody, V domains shown)
VH: QVQLVQSGAEVKKPGASVKVSCKASGYTFTGYYMHWVRQAPGQGLEWMGWINPNSGGTNYAQKFQGRVTMTRDTSITTAYMELTRLISDDTAVYYCASPASIPAAGSFAFDIWGQGTMVTVSS
VL: EIVLTQSPGTLSLSPGERATLSCRASQSVGSSYLTWYQQKPGQAPRLLIYGASSRATGIPDRFSGSGSGTDFTLTISGLEPEDFAVYYCQQYETFGQGTKVEIK
B2: G001_gp1_V10_VRC01c_183 (antibody, V domains shown)
VH: QVHPVQSGAEVKKPGASVKVSCEASGYTFSGYYMHWVRQAPGQGLEWMGWINLNSGGTNYAQKFQDRVTMTRDTSISTAYMELSSLRSDDTAFYYCAHNGGNGGTWYFHYWGQGTLVTVSS
VL: EIVLTQSPGTLSLSPGERATLSCRASQSVSNNYLAWYQQKPGQAPRLLIYGASRRATGIPDRFSGSGTGTDFTLTISRLEPEDSAVYYCQQYETFGPGTKVDIK
B3: G001_gp1_V10_VRC01c_171 (antibody, V domains shown)
VH: QVQLVQSGAEVKRPGASVKVSCKASGYTFTDYYIHWVRQAPGQGLEWMGWINPNSGGTNYARKFQGRVTMTRHTSIGTAYMELSRLRSDDTAVYYCARHIVAAGTWAFDIWGQGTMVTVSS
VL: EIVLTQSPGTLSLSPGERATLSCRASQSVSSSYLAWYQQKPGQAPRLLIYGASSRATGIPDRFRGSGSGTDFTLTISRLEPEDFAVYYCQQYETFGQGTKVEIK
B4: G001_gp1_V10_VRC01c_172 (antibody, V domains shown)
VH: QVQLVQSGAEVKKPGASVKVSCKASGYTFTGYYFYWVRQAPGQGLEWMGWINPNSGGTNSPQKFQGRVSMTRDTSISTAYMEVSSLRSDDTAVYYCARRFTSMGVALDYWGQGTLVTVSS
VL: EIVLTQSPGTLSLSPGERATLSCRASQSVSSSSLAWYQQKPGQAPRLLIFGTSSRATGIPDRFSGSGSGTDFTLTISRLEPEDFAVYYCQQYDSFGQGTRLEIK
B5: G001_gp1_V10_VRC01c_184 (antibody, V domains shown)
VH: QVQLVQSGAEVKKPGASVKVSCKASGYTFTAYYMHWVRQAPGQGLEWMGWINPNSGGTNYAQKFQGRVTMTRDTSITTAYMELSRLRSDDTAVYYCAIESVVRHSWFDPWGQGTLVTVSS
VL: EIVLTQSPGTLSLSPGERATLSCRASQNVSSSYLAWYQQKPGQAPRLLIYYASIRATGIPDRFSGSGSGTAFTLTISRLEPEDFAVYYCQQYEAFGQGTKVEIK
B6: G001_gp1_V10_VRC01c_170 (antibody, V domains shown)
VH: QVQLVQSGAEVKKPGASVKVSCKASGYTFTDYYMHWVRQAPGQGLEWMGWINPNSGGTNYAQKFQDRVTMTRDTSISTGYMELRRLRSDDTAVYYCASHHLTSQGPWWFDPWGQGTLLTVSS
VL: EIVLTQSPGTLSLSPGERATLSCRASQSVSSSYLVWYQQKPGQAPRLLIYGASSRATGIPDRFSGRGSGTDFTLTISRLESEDFAVYFCQQYETFGQGTKVEIK
B7: G001_gp1_V10_VRC01c_2021-0097 (antibody, V domains shown)
VH: QVQLVQSGAEVKKPGASVKVSCKASGHTFTGYYMHWVRQAPGQGLEWMGWINSNSGGTNYAQKFQGWVTMTRDTSINTVYMELNRLTSDDTAVYYCAGGGRSTYYSWWFDPWGQGTLVTVSS
VL: EIVLTQSPGTLSLSPGERATLSCRASQSVSSSYLAWYQQKPGQAPRLLIYGASSRATGIPDRFSGSGSGTDFTLTISRLEPEDLAVYYCQQWETFGQGTKVEIK
B8: G001_gp1_V10_VRC01c_2021-0092 (antibody, V domains shown)
VH: QVQLVQSGAEVKKPGASVKVSCKASGYTFTGYYMHWVRQAPGHGLEWMGWINPNSGGSNYAQRFQGWVTMTRDTSISTAYMELTRLRSDDTAVYYCARELLAAAGTVFDYWGQGTLVTVSS
VL: EIVLTQSPGTLSLSPGERATLSCRASQSVSSSYLAWYQQKPGQAPRLLIYGASSRATGIPDRFSGSGSGTDFTLTISRLEPEDFAVYYCQQYETFGQGTKVEIN
B9: G001_gp1_V10_VRC01c_168 (antibody, V domains shown)
VH: QVQLVQSGAEVKKPGASVKVSCKASGYTFTGYHIHWVRQAPGQGLEWMGWINPNSGGTNYARKFQGRVTMTRDTSISTAYMELSRLNSDDTAVYYCAFPLGIRTTGRSWYFDLWGRGTLVTVSS
VL: DIQMTQSPSSLSASVGDRVTITCQASQDISNYLNWYQQKPGKAPKILIYDASNLETGVPSRFRGSGSGTDFTFTISSLQPEDIATYYCQQYETFGGGTKVEIK
B10: G001_gp1_V10_VRC01c_176 (antibody, V domains shown)
VH: QVQLVQSGAEVKRPGASVKVSCRASGYTFTGYYMHWVRQAPGQGLEWMGWINPNSGGTNYAQKFQGRVTMTRDTSITTAYMELSRLNYDDTAVYYCARGDDSSAWRFHSWGQGTLITVSS
VL: DIQMTQSPSSLSASVGDRVTITCQASQDSSNYLNWYQQKPGKAPKLLIYDASNLETGVPSRFSGSGSGTDFTFTISSLQPEDIATYYCQQYETFGGGTKVEIK
B11: G001_gp1_V10_VRC01c_181 (antibody, V domains shown)
VH: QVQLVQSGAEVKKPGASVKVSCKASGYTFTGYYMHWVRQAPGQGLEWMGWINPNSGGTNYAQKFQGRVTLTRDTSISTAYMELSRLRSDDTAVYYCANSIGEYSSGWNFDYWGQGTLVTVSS
VL: DIQMTQSPSSLSASVGDRVTITCQASQDISNYLNWYQQKPGKAPKLLIYYASNLETGVPSRFSGSGSGTDFTFTISSLQPEDIATYYCQQYGTFGQGTKLEIK
B12: G001_gp1_V10_VRC01c_174 (antibody, V domains shown)
VH: QVQLVQSGAEVKKPGATVKVSCKASGYTLTDYYMHWVRQAPGQGLEWMGWMNPNSGGTNYGRKFQGRVTMTRDTSINTAYMELSRLRSDDTAVYFCARAREKWPFDYWGQGTLVTVSS
VL: DIQMTQSPASLSASVGDRVTITCQASQDISNYVNWYQQKPGKAPKLLINGASNLETGVPSRFSGSGSGTDFTFTISSLQPEDIATYYCQQYENFGPGTKVDIK
B13: G001_gp1_V10_VRC01c_175 (antibody, V domains shown)
VH: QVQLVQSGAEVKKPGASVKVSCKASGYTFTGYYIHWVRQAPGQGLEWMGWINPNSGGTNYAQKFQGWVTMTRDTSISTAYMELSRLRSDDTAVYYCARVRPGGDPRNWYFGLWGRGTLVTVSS
VL: DIQMTQSPSSLSASVGDRVTITCQASQDISNYLNWYQQKPGKAPKLLIYDASNLETGVPSRFSGSGSGTDFTFTISSLQPEDIATYYCQQWDTFGQGTKLEIK
B14: G001_gp1_V10_VRC01c_2021-0095 (antibody, V domains shown)
VH: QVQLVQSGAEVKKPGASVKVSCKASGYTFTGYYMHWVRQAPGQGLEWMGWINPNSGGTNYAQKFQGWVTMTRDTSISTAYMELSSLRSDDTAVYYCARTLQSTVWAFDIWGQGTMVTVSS
VL: DIQMTQSPSSLSASVGDRVTITCQASQDISNYLNWYQQKPGKAPQLLIYDASNLETGVPSRFSGRGSGTDFTFTISSLQPEDIATYYCQQYDTFGQGTRLEIK
B15: G001_gp1_V10_VRC01c_2021-0094 (antibody, V domains shown)
VH: QVQLVQSGAEVKKPGASVKVSCKASGYTFTGYYMHWVRQAPGQGLEWMGWINPNSGGTNYAEKFQGWVTMTRDTSISTAYMELRRLKSDDTAVYYCATSLGGNPGRIWDMDVWGQGTTVTVSS
VL: QSALTQPASVSGSPGQSITISCTGTSSDVGGYNFVSWYQQHPGKAPKLIIYDVTNRPSGVSNRFSGSKSGNTASLTISGLQAEDEANYYCSSYEVFGTGTKVTVL
B16: G001_gp1_V10_VRC01c_2021-0093 (antibody, V domains shown)
VH: QVQLVQSGAEVHNPGASVKVSCKASGYTFSDHYIHWVRQAPGQGLEWMGWINPNSGGTNYAQKFQGWVSMTRDTSITTAYMELSRLRSADTAVYYCAIPGICPGGNCYSYYFDSWGQGTLVSVSS
VL: EIVLTQSPGTLSVSPGERATLSCRSSQSVSSLAWYQLKPGQAPRLLIYGAYNRAIGIPDRFSGSGSGTDFTLTISRLEPEDLAVYYCQQYEFFGQGTKLEIK
B17: G001_gp1_V10_VRC01c_2021-0088 (antibody, V domains shown)
VH: QVQLVQSGAEVKKPGASVKVSCKASGYTFTGYYMHWVRQAPGQGLEWMGWINPNSGGTNYAQKFQDWVTMTRDTSISTAYMELSRLRSDDTAVYFCARVKGHYDSSGGWNFDLWGRGTLVTVSS
VL: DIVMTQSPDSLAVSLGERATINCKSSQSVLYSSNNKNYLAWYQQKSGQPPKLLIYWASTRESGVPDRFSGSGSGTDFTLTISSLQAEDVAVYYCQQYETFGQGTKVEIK
B18: G001_gp1_V10_VRC01c_169 (antibody, V domains shown)
VH: QVHLVQSGAEVKKPGASVKVSCKASGYTFTDDYIHWLRQAPGQGLEWMGWINPYSGGTNYAQKFQGRVTMTRDTSINTAYMELSRLRSDDTAVYYCARYQSTFYFDYWGQGTLVTVSS
VL: DFQMTQSPSTLSASVGDRVTITCRASQSLSSWLAWYQQKPGKAPKLLIYKASSLESGVPSRFSGSGSGTEFTLTISSLQPDDSATFYCQQYETFGQGTKLEIK
B19: G001_gp1_V10_VRC01c_177 (antibody, V domains shown)
VH: not shown
VL: DIQMTQSPSTLSASVGDRVTITCRASQTISSWLAWYQQKPGKAPKLLIYDASSLESGVPSRFSGSGSGTEFTLTITSLQPDDFATYYCQQYETFGPGTKVDIK
B20: G001_gp1_V10_VRC01c_173 (antibody, V domains shown)
VH: QVQLVQSGADVKKPGASVKVSCKASGYTLTGYYMHWVRQAPGQGLEWMGWINANSGGTNYAQKFQGRVTMTRDTSISTVYMELSRLRSDDTAVYYCAHRAGYCSGGGCSWYFDLWGRGTLVTVSS
VL: DIQMTQSPSTLSASVGDRVTITCRASQSSSGWLAWYQQKPGKAPKLLIYKASSLESGVPSRFSGSGSGTEFTLTISSLQPDDFATYYCQQYEAFGQGTKVEIK
B21: G001_gp1_V10_VRC01c_2021-0086 (antibody, V domains shown)
VH: not shown
VL: EIVMTQSPATLSVSPGERATLSCRASQSVSSNLAWYQQKPGQAPRLLIYGASTRATGIPARFSGSGSGTEFTLTISSLQSEDFAVYYCQQYQTFGQGTKLEIK
B22: G001_gp1_V10_VRC01c_2021-0096 (antibody, V domains shown)
VH: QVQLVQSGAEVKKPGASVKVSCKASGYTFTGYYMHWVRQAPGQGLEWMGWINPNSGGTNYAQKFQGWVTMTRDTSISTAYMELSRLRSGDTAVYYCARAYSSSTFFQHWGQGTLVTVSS
VL: EIVMTQSPATLSVSPGERATLSCRASQSVSSNLAWYQQKPGQAPRLLIYGASTRATGIPARFSGSGSGTEFTLTISSLQSEDLAVYYCQQYTAFGQGTKVEIK
B23: G001_gp1_V10_VRC01c_2021-0090 (antibody, V domains shown)
VH: not shown
VL: DNQMTQSPSSLSASVGDRVTITCRASQGISNSLAWYQQKPGKAPKLLLYASSRLESGVPSRFSGSGSGTDYTLTISSLQPEDFATYYCQQYETFGQGTKVEIK
B24: G001_gp1_V10_VRC01c_182 (antibody, V domains shown)
VH: QLQLVQSGAEVKKPGASVKVSCQASGFTFSGHYMHWVRQAPGHGLEWMGWINTNSGGTNYARKFQGRVTMTRDTSISTAYMELSRLRSDDTAVYYCATSVWFGASVWNFDNWGQGSLVTVSS
VL: ENVLTQSPATLSLSPGERATLSCRASQSVSTHNLAWYQQKPGQAPRLLIYGVFSRATGIPDRFSGSGSGTDFTLTISSLEPEDTAVYYCQQYETFGQGTNVEIK

The assay deals with eOD-GT8 (engineered outer domain germline-targeting version 8), monomer (HIV-1 gp120 engineered outer domain, …).
B1: the binding result was “binds”.
Then B2, with “binds”; and B3, with “binds”.
With B4 the entry was “binds”.
Then B5, with “binds”; and B6, with “binds”.
As for B7, the binding result was “binds”.
With B8, the binding result is given as “binds”.
On to B9, for which the binding result is on record as “binds”.
B10: the binding result was “binds”.
With B11 the entry was “binds”; with B12, “binds”; with B13, “binds”.
For B14, the binding result is on record as “binds”.
For the molecule B15, the binding result was “binds”.
With B16 the entry was “binds”; with B17, “binds”.
With B18 the entry was “binds”.
With B19 the entry was “binds”; with B20, “binds”; with B21, “binds”.
For the molecule B22, the binding result is “binds”.
With B23 the entry was “binds”.
Turning to B24, the binding result is recorded as “binds”.
